This is an account of results in the Immune Epitope Database (IEDB).

Some targets named below: HLA-A*02:01; HLA-A*02:03; HLA-A*02:02; HLA-A*68:02; HLA-A*02:06.
Common to all, as to assay: IEDB peptide-MHC binding, cellular MHC/competitive/fluorescence; ≥ and ≤ were set here for values at or beyond the usual limits of such assays
[1] abbreviates: source organism: Influenza A virus.
Setting [2] is: source organism: Mammarenavirus brazilense.
Where [3] appears, read: source organism: Vaccinia virus WR.
The mark [4] stands for this setting: source organism: Mammarenavirus guanaritoense.
Where [5] appears, read: source organism: Hepacivirus hominis.

For orientation: IC50 means the concentration needed to halve the response being measured. A higher IC50 goes with lower potency.

In the case of IAYERMCNIL, the half-maximal inhibitory concentration (IC50) with HLA-A*02:01 (setting [1]) is ≥ 70 µM; with HLA-A*02:03 (setting [1]), 16.5 µM; in the assay with HLA-A*02:02 (setting [1]) it was 24 µM; in the assay with HLA-A*68:02 (setting [1]) it was 24.6 µM; with HLA-A*02:06 (setting [1]), 7.91 µM.

On to ICFWSTLFFT, for which the IC50 was 11.9 µM in the assay with HLA-A*02:01 (setting [2]); 35.1 µM with HLA-A*02:03 (setting [2]); 33.2 µM in the assay with HLA-A*02:02 (setting [2]); 47.6 µM in the assay with HLA-A*68:02 (setting [2]); 34.9 µM with HLA-A*02:06 (setting [2]).

For the sequence IILFQNNDI, the IC50 in the assay with HLA-A*02:01 (setting [3]) was 13.5 µM; in the assay with HLA-A*02:03 (setting [3]) it was 52.3 µM; with HLA-A*02:02 (setting [3]), 11.3 µM; with HLA-A*68:02 (setting [3]), 23.8 µM; in the assay with HLA-A*02:06 (setting [3]), 12.1 µM.

As for IIRVTTELNI, the IC50 in the assay with HLA-A*02:01 (setting [3]) stood at 7.07 µM; in the assay with HLA-A*02:03 (setting [3]), 8.76 µM; with HLA-A*02:02 (setting [3]), 9.96 µM; with HLA-A*68:02 (setting [3]), 16.4 µM; with HLA-A*02:06 (setting [3]), 13.7 µM.

Take ILLRAFTEEGA: the IC50 was 11.9 µM in the assay with HLA-A*02:01 (setting [1]); 26.5 µM with HLA-A*02:03 (setting [1]); 9.59 µM in the assay with HLA-A*02:02 (setting [1]); ≥ 70 µM in the assay with HLA-A*68:02 (setting [1]); 26.3 µM with HLA-A*02:06 (setting [1]).

Turning to ITDQTVNICI, the IC50 with HLA-A*02:01 (setting [3]) is 7.2 µM; in the assay with HLA-A*02:03 (setting [3]) it was ≥ 70 µM; in the assay with HLA-A*02:02 (setting [3]), ≥ 70 µM; in the assay with HLA-A*68:02 (setting [3]) it was 51.2 µM; with HLA-A*02:06 (setting [3]), 10.4 µM.

As to ITETIPIGM, the IC50 with HLA-A*02:01 (setting [3]) was ≥ 70 µM; in the assay with HLA-A*02:03 (setting [3]), 42.8 µM; with HLA-A*02:02 (setting [3]) it was 12.4 µM; with HLA-A*68:02 (setting [3]) it was 6.13 µM; in the assay with HLA-A*02:06 (setting [3]), 7.69 µM.

For the sequence ITGNKVKTEL, the IC50 with HLA-A*02:01 (setting [3]), in the assay with HLA-A*02:03 (setting [3]), with HLA-A*02:02 (setting [3]), in the assay with HLA-A*68:02 (setting [3]) and with HLA-A*02:06 (setting [3]) was ≥ 70 µM in each case.

For the sequence KAMHDKKIDI, the concentration for half-maximal inhibition (IC50) in the assay with HLA-A*02:01 (setting [3]) was 50.6 µM; with HLA-A*02:03 (setting [3]), 46.2 µM; with HLA-A*02:02 (setting [3]), ≥ 70 µM; with HLA-A*68:02 (setting [3]), ≥ 70 µM; with HLA-A*02:06 (setting [3]), 26.4 µM.

For the sequence KIQLFSDFTI, the IC50 with HLA-A*02:01 (setting [3]), in the assay with HLA-A*02:03 (setting [3]), with HLA-A*02:02 (setting [3]), in the assay with HLA-A*68:02 (setting [3]) and with HLA-A*02:06 (setting [3]) was ≥ 70 µM throughout.

Regarding KLTKDRKML, the IC50 was 56.6 µM in the assay with HLA-A*02:01 (setting [3]); 36.4 µM with HLA-A*02:03 (setting [3]); 24.5 µM with HLA-A*02:02 (setting [3]); ≥ 70 µM in the assay with HLA-A*68:02 (setting [3]); ≥ 70 µM in the assay with HLA-A*02:06 (setting [3]).

Take KNAGYLVGR: the IC50 with HLA-A*02:01 (setting [4]) was 23 µM; in the assay with HLA-A*02:03 (setting [4]), ≥ 70 µM; with HLA-A*02:02 (setting [4]), 45.7 µM; with HLA-A*68:02 (setting [4]), ≥ 70 µM; with HLA-A*02:06 (setting [4]), ≥ 70 µM.

In the case of KTEHCDDFMT, the IC50 is 7.51 µM in the assay with HLA-A*02:01 (setting [3]); 37.7 µM in the assay with HLA-A*02:03 (setting [3]); 7.82 µM with HLA-A*02:02 (setting [3]); ≥ 70 µM with HLA-A*68:02 (setting [3]); 11.6 µM in the assay with HLA-A*02:06 (setting [3]).

As to LAEYIRHRNT, the IC50 with HLA-A*02:01 (setting [3]) is ≥ 70 µM; with HLA-A*02:03 (setting [3]) it was 14 µM; in the assay with HLA-A*02:02 (setting [3]) it was 36.1 µM; in the assay with HLA-A*68:02 (setting [3]), 52.4 µM; with HLA-A*02:06 (setting [3]) it was ≥ 70 µM.

Take LAIKNYYRKT: the IC50 with HLA-A*02:01 (setting [3]) was ≥ 70 µM; with HLA-A*02:03 (setting [3]), 7.18 µM; with HLA-A*02:02 (setting [3]) it was 36.8 µM; in the assay with HLA-A*68:02 (setting [3]) it was 39.7 µM; with HLA-A*02:06 (setting [3]), ≥ 70 µM.

Take LAYYNSCML: the IC50 came out at 46.1 µM with HLA-A*02:01 (setting [3]); 15.5 µM with HLA-A*02:03 (setting [3]); 12.8 µM with HLA-A*02:02 (setting [3]); 13.3 µM in the assay with HLA-A*68:02 (setting [3]); 21.5 µM with HLA-A*02:06 (setting [3]).

With LIISTDQDT, the IC50 was 30.1 µM with HLA-A*02:01 (setting [3]); ≥ 70 µM in the assay with HLA-A*02:03 (setting [3]); ≥ 70 µM in the assay with HLA-A*02:02 (setting [3]); ≥ 70 µM with HLA-A*68:02 (setting [3]); ≥ 70 µM with HLA-A*02:06 (setting [3]).

On to LIQYRQQLEL, for which the IC50 in the assay with HLA-A*02:01 (setting [3]) is ≥ 70 µM; with HLA-A*02:03 (setting [3]) it was 19.5 µM; with HLA-A*02:02 (setting [3]), 32.8 µM; in the assay with HLA-A*68:02 (setting [3]) it was ≥ 70 µM; with HLA-A*02:06 (setting [3]), 52.9 µM.

On to LLGLLLLCV, for which the IC50 with HLA-A*02:01 (setting [5]) was 7.37 µM; with HLA-A*02:03 (setting [5]), 6.77 µM; in the assay with HLA-A*02:02 (setting [5]) it was 9.77 µM; in the assay with HLA-A*68:02 (setting [5]), ≥ 70 µM; with HLA-A*02:06 (setting [5]), 19.1 µM.

Consider LLLVVQALR, for which the IC50 with HLA-A*02:01 (setting [1]) worked out at 10.2 µM; with HLA-A*02:03 (setting [1]), 34.6 µM; in the assay with HLA-A*02:02 (setting [1]), 10.7 µM; in the assay with HLA-A*68:02 (setting [1]), 60.4 µM; with HLA-A*02:06 (setting [1]), 8.59 µM.

Regarding LLTHGADPNA, the IC50 with HLA-A*02:01 (setting [3]) is 11.2 µM; with HLA-A*02:03 (setting [3]) it was 7.51 µM; in the assay with HLA-A*02:02 (setting [3]), 9.61 µM; with HLA-A*68:02 (setting [3]), ≥ 70 µM; with HLA-A*02:06 (setting [3]) it was 15.7 µM.

Consider LTDVEKRIL, for which the IC50 is 27 µM with HLA-A*02:01 (setting [3]); 28.5 µM with HLA-A*02:03 (setting [3]); 27.4 µM with HLA-A*02:02 (setting [3]); ≥ 70 µM in the assay with HLA-A*68:02 (setting [3]); ≥ 70 µM with HLA-A*02:06 (setting [3]).

Consider LTGNNTITT, for which the half-inhibitory concentration (IC50) with HLA-A*02:01 (setting [3]) amounted to 11.2 µM; in the assay with HLA-A*02:03 (setting [3]) it was 5.62 µM; with HLA-A*02:02 (setting [3]) it was 5.75 µM; in the assay with HLA-A*68:02 (setting [3]), 8.24 µM; in the assay with HLA-A*02:06 (setting [3]), 8.69 µM.

With LTNKKYRCMA, the concentration for half-maximal inhibition (IC50) in the assay with HLA-A*02:01 (setting [3]) is ≥ 70 µM; in the assay with HLA-A*02:03 (setting [3]) it was 5.4 µM; with HLA-A*02:02 (setting [3]), 34.8 µM; with HLA-A*68:02 (setting [3]), 16.6 µM; in the assay with HLA-A*02:06 (setting [3]), ≥ 70 µM.
